According to patent publication US20260234258A1 (REPERTOIRE IMMUNE MEDICINES, published 2026):

Key:
[1] = target: T1, mouse CD8 (on CD8 T cells of mouse splenocytes) (mouse, UniProt P01731 28-247); assay: flow cytometry on mouse splenocytes, CD8 T cells; IL2 loading detected with anti-IL2; median fluorescence intensity
T1 construct: whole, on cells; also called mCD8
Method: (§1) Anti-mouse CD8-human IL2 molecules were evaluated for their ability to specifically bind and load IL2 on CD8 T cells. Briefly, 1×10⁵ mouse splenocytes were incubated with indicated CD8-IL2 (human FC receptor) molecules from one of the concentrations ranging from 0.05 pM to 500 nM. Anti-mouse CD8 antibody was used as control. Following one hour incubation with molecules, splenocytes were washed twice with RPMI complete medium and once with PBS. The washed splenocytes were stained with anti-TL2 (MQ1-17H12), anti-human kappa (MHK-49) and lineage surface makers CD4(RM4-4), NK1.1(PK136) and CD19(6D5) for 20 minutes, after which the cells were washed and analyzed using flow cytometer. Mean fluorescence intensity data was analyzed using four parameter nonlinear regression method to calculated binding affinity in GraphPad prism.

[2] = target: T1, mouse CD8 (on CD8 T cells of mouse …); assay: flow cytometry on mouse splenocytes, CD8 T cells; bound molecule detected with anti-human kappa; median fluorescence intensity
Method: as §1

[3] = target: T1, mouse CD8 (on CD8 T cells of mouse …); assay: flow cytometry on mouse splenocytes, gated cell types; IL2 loading detected with anti-IL2; median fluorescence intensity
Method: as §1

[4] = target: T1, mouse CD8 (on CD8 T cells of mouse …); assay: cell-based or functional assay
[5] = target: T2, human CD8 (on CD8 T cells of human PBMC) (human, UniProt P01732 22-235); assay: flow cytometry on human PBMC, CD8 T cells; bound molecule detected with anti-human kappa; MFI
T2 construct: The assay used native CD8 on human PBMC; also called hCD8; NP_001139345.1
Method: (§2) Anti-human CD8-human IL2 molecules were evaluated for their ability to specifically bind and load IL2 on CD8 T cells. Briefly, […] human PBMC were co-cultured with indicated CD8-IL2 (human FC receptor) molecules from one of the concentrations ranging from 0.05 pM to 0.4 nM. Following one hour incubation with molecules, PBMC were washed twice with RPMI complete medium and washed once with PBS. The washed cells were stained with anti-IL2 (MQ1-17H12), anti-human kappa (MHK-49) and lineage surface markers CD3(UCHT1), CD4(SK3) and NK(HCD56) for 20 minutes, after which the cells were washed and analyzed using a flow cytometer. The binding affinity was quantified and represented as mean fluorescence intensity (MFI).

[6] = target: T2, human CD8 (on CD8 T cells of human PBMC); assay: flow cytometry on human PBMC, gated cell types; IL2 loading detected with anti-IL2; MFI
Method: as §2

[7] = target: T2, human CD8 (on CD8 T cells of human PBMC); assay: cell-based or functional assay
[8] = target: T2, human CD8 (on CD8 T cells of human PBMC); assay: cell-based or functional assay; remark: listed apart in the source

T1 sequence (P01731 28-247): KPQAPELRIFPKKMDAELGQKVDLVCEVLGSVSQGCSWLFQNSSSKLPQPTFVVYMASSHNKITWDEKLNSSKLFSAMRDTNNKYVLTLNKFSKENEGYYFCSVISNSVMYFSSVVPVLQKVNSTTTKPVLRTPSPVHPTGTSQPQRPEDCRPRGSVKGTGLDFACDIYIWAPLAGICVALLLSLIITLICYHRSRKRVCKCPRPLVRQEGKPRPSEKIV
T2 sequence (P01732 22-235 limits assumed): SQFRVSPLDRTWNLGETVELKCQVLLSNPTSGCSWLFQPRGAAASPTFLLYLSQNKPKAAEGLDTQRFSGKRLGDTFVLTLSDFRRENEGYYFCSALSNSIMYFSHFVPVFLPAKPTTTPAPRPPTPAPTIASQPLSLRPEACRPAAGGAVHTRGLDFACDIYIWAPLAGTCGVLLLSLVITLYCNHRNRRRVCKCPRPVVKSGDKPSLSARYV

Binder | EC50 (read off the curve) [1] [nM] | EC50 (read off the curve) [2] [nM] | EC50 (read off the curve) [3] [nM] | Percentage of CD8 T Cell expansion at 32 pm [4] [%] | Percentage of CD8 T Cell expansion at 160 pm [4] [%] | EC50 (read off the curve) [5] [nM] | EC50 (read off the curve) [6] [nM] | EC50 of Proliferation (percentage Ki67), CD8+ T cells [7] [nM] | EC50 pSTAT5 Activation, CD8+ T cells [8] [pM]
mCD8 IgG IL2 (HC) (YTS105) (antibody, Anti-mouse CD8 IgG (clone YTS105) with human IL-2 on the C-terminus of each heavy chain) heavy: not shown light: DIVMTQSPSSLAVSAGERVTLNCKASQNVRNNIAWYQQKPGQSPKLLIYYASYRYTGVPDRFTGDGFGTDFTLAINSVQADDAAFYYCQRIYNSPYTFGAGTKLELIRTVAAPSVFIFPPSDEQLKSGTASVVCLLNNFYPREAKVQWKVDNALQSGNSQESVTEQDSKDSTYSLSSTLTLSKADYEKHKVYACEVTHQGLSSPVTKSFNRGEC | ~0.05 | ~0.04 | ~0.05 | 46.5 | 63.2 | – | – | – | –
mCD8IgG (anti-mouse CD8 antibody control, clone YTS105) (antibody, not shown: a dimerising Fc or GST, Control without IL-2) heavy: EVQLKESGPGLVQPSQTLSLTCTVSGFSLTSNSVHWVRQPPGKGLEWMGGIWGDGDTDYNSALKSRLSISRDTSKNQVFLKMNSLQTDDTAIYFCTPLIGSWYFDFWGPGTMVTASSASTKGPSVFPLAPSSKSTSGGTAALGCLVKDYFPEPVTVSWNSGALTSGVHTFPAVLQSSGLYSLSSVVTVPSSSLGTQTYICNVNHKPSNTKVDKKVEPKSC light: DIVMTQSPSSLAVSAGERVTLNCKASQNVRNNIAWYQQKPGQSPKLLIYYASYRYTGVPDRFTGDGFGTDFTLAINSVQADDAAFYYCQRIYNSPYTFGAGTKLELIRTVAAPSVFIFPPSDEQLKSGTASVVCLLNNFYPREAKVQWKVDNALQSGNSQESVTEQDSKDSTYSLSSTLTLSKADYEKHKVYACEVTHQGLSSPVTKSFNRGEC | – | ~0.04 | – | – | – | – | – | – | –
hCD8 IgG IL2 1x (HC) (VH6/VK3) (antibody, Humanized 02A01 (VH6/VK3) anti-human CD8 IgG, knob-in-hole, one human IL-2 on the C-terminus of the knob heavy chain; also called hCD8 IgG IL2 1×(HC)) heavy 1: not shown heavy 2: EVQLVQSGAEVKKPGATVKISCKASGYTFTDFTMHWVQQAPGKGLEWIGLVNPNNGGNIYAEKFQGRVTLTVDTSTSTAYMELSSLRSEDTAVYYCGRVPLYTSHGMDYWGQGTLVTVSSASTKGPSVFPLAPSSKSTSGGTAALGCLVKDYFPEPVTVSWNSGALTSGVHTFPAVLQSSGLYSLSSVVTVPSSSLGTQTYICNVNHKPSNTKVDKKVEPKSCDKTHTCPPCPAPEAAGGPSVFLFPPKPKDTLMISRTPEVTCVVVDVSHEDPEVKFNWYVDGVEVHNAKTKPREEQYASTYRVVSVLTVLHQDWLNGKEYKCKVSNKALGAPIEKTISKAKGQPREPQVYTLPPSRDELTKNQVSLSCAVKGFYPSDIAVEWESNGQPENNYKTTPPVLDSDGSFFLVSKLTVDKSRWQQGNVFSCSVMHEALHNHYTQKSLSLSPGK light: EIVLTQSPATLSLSPGERATISCRASESVDSYDINSMHWYQQKPGQAPRLLIYRASHLQSGIPARFSGSGSRTDFTLTISSLEPEDFATYYCQQSNEDPLTFGQGTKLEIKRTVAAPSVFIFPPSDEQLKSGTASVVCLLNNFYPREAKVQWKVDNALQSGNSQESVTEQDSKDSTYSLSSTLTLSKADYEKHKVYACEVTHQGLSSPVTKSFNRGEC | – | – | – | – | – | ~0.03 | ~0.03 | 0.0689 | 0.448
mCD8 Fab Fc IL2 (LC) (YTS105) (antibody, human IgG1, kappa, L234A L235A, N297A, One-armed Fab-Fc (clone YTS105) with human IL-2 on the C-terminus of the light chain; also called mCD8 Fc-IL2(LC); CD8Fc-IL2) heavy: EVQLKESGPGLVQPSQTLSLTCTVSGFSLTSNSVHWVRQPPGKGLEWMGGIWGDGDTDYNSALKSRLSISRDTSKNQVFLKMNSLQTDDTAIYFCTPLIGSWYFDFWGPGTMVTASSASTKGPSVFPLAPSSKSTSGGTAALGCLVKDYFPEPVTVSWNSGALTSGVHTFPAVLQSSGLYSLSSVVTVPSSSLGTQTYICNVNHKPSNTKVDKKVEPKSCDKTHTCPPCPAPEAAGGPSVFLFPPKPKDTLMISRTPEVTCVVVDVSHEDPEVKFNWYVDGVEVHNAKTKPREEQYASTYRVVSVLTVLHQDWLNGKEYKCKVSNKALGAPIEKTISKAKGQPREPQVYTLPPSRDELTKNQVSLWCLVKGFYPSDIAVEWESNGQPENNYKTTPPVLDSDGSFFLYSKLTVDKSRWQQGNVFSCSVMHEALHNHYTQKSLSLSPGK DKTHTCPPCPAPEAAGGPSVFLFPPKPKDTLMISRTPEVTCVVVDVSHEDPEVKFNWYVDGVEVHNAKTKPREEQYASTYRVVSVLTVLHQDWLNGKEYKCKVSNKALGAPIEKTISKAKGQPREPQVYTLPPSRDELTKNQVSLSCAVKGFYPSDIAVEWESNGQPENNYKTTPPVLDSDGSFFLVSKLTVDKSRWQQGNVFSCSVMHEALHNHYTQKSLSLSPGK light: not shown | ~0.8 | ~0.7 | ~0.4 | 56.1 | 60.6 | – | – | – | –
mCD8 Fab IL2 (LC) (YTS105) (Fab, Anti-mouse CD8 Fab (clone YTS105) with human IL-2 fused to the C-terminus of the light chain) heavy: EVQLKESGPGLVQPSQTLSLTCTVSGFSLTSNSVHWVRQPPGKGLEWMGGIWGDGDTDYNSALKSRLSISRDTSKNQVFLKMNSLQTDDTAIYFCTPLIGSWYFDFWGPGTMVTASSASTKGPSVFPLAPSSKSTSGGTAALGCLVKDYFPEPVTVSWNSGALTSGVHTFPAVLQSSGLYSLSSVVTVPSSSLGTQTYICNVNHKPSNTKVDKKVEPKSC light: not shown | ~0.6 | ~0.5 | ~0.3 | 56.4 | 59.7 | – | – | – | –
